Test [1] has as its target mouse LTβR:Fc (amino acid residues 1 to Met221 of the extracellular domain of mouse LTβR) (mouse) (UniProt P50284). Briefly: ELISA, receptor:Fc capture, anti-FLAG detection.
In test [2] the target is mouse HVEM:Fc (mouse HVEM Met1 to Ser205 fused to the Fc region of human IgG1) (mouse; human) (UniProt Q80WM9). Briefly: ELISA, receptor:Fc capture, anti-FLAG detection.
For test [3], the target named is LTβR (lymphotoxin β receptor) expressed by cells (human) (UniProt P36941). The test is described as follows: cell-based or functional assay.
The target in test [4] is HVEM:Fc (extracellular region of HVEM, 1 to K184, fused to the Fc region of human IgG1) (human) (UniProt Q92956). The test is described as follows: SPR (BIAcore), receptor:Fc amine-coupled, LIGHT as analyte 100-500 nM.
The target in the next test is human LTβR:Fc (human) (UniProt P36941). The description is as above.
The target in test [5] is HVEM:Fc (extracellular region of HVEM, 1 to K184, fused to the Fc region of human IgG1) (human) (UniProt Q92956). Briefly: SPR (BIAcore), receptor:Fc amine-coupled, LIGHT mutant as analyte 100-500 nM. A general note: SPR reads the build-up and loss of mass on a sensor chip optically.
Test [6] shares this target. The test is described as follows: SPR (BIAcore).

Data on 2 substances can be found in patent EP1674575A2.

Sequence of human LTβR:Fc (human) (P36941 31-227 limits assumed): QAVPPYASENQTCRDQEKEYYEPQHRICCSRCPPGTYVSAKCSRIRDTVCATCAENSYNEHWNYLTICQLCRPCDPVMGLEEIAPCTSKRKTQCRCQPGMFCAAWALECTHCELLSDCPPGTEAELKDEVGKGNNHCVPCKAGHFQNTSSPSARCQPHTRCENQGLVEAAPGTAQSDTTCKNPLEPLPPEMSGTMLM
Sequence of HVEM:Fc (extracellular region of HVEM, 1 to K184, fused to the Fc region of human IgG1) (human) (Q92956 39-184 limits assumed): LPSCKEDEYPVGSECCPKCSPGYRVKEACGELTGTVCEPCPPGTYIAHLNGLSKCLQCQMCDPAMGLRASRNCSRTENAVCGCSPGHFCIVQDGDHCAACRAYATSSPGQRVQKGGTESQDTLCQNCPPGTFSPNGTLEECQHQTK
Sequence of mouse LTβR:Fc (amino acid residues 1 to Met221 of the extracellular domain of mouse LTβR) (mouse) (P50284 31-221 limits assumed): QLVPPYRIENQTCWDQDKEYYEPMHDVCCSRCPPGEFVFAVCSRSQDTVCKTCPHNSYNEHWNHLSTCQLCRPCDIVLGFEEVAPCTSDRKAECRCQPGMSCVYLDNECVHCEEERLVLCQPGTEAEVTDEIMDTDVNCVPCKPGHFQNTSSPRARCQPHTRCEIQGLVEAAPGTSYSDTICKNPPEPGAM
Sequence of mouse HVEM:Fc (mouse HVEM Met1 to Ser205 fused to the Fc region of human IgG1) (mouse; human) (Q80WM9 39-205): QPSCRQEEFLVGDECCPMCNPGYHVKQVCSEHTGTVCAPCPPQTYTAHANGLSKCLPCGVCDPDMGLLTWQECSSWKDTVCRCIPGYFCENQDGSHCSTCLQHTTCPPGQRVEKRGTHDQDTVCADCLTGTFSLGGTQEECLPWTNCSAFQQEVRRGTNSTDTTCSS

Usually Kd stands for a measure of binding affinity in units of concentration. A word on the koff: it is the first-order rate constant of dissociation. By kon is commonly meant the second-order rate constant of association. In the case of “LIGHTt66-FLAG (recombinant soluble homotrimeric human LIGHT lacking the N-terminal 66 amino acids, N-terminal FLAG epitope) (ligand)”, the fold lower affinity (against the human receptors) in test [1] amounted to 10 fold. Moreover, in test [2], the fold lower affinity (against the human receptors) amounted to 10 fold. In test [3], this substance registered a concentration for complete inhibition of HCMV cytopathic effect of 100 pM; a dose for 50% cytotoxicity to HT29 cells (MTT, with IFNγ) of 10 to 100 pM; a fold induction of ICAM expression by NHDF cells (flow cytometry, 5 nM) of 4 fold; a growth inhibition of HT29 cells by LIGHT (0.25 nM), MTT after 72 h of 50%. In test [4], this substance yielded a Kd of 3.9 nM, an off-rate constant (koff) of 4.8e-05 s⁻¹ and a kon of 12000 M⁻¹ s⁻¹. In the test with human LTβR:Fc (human), the Kd came to 4.5 nM, the off-rate (koff) stood at 0.00012 s⁻¹ and the kon was 27000 M⁻¹ s⁻¹.

As to “LIGHTt66-FLAG mutant G119E (from UniProt O43557 67-240) (ligand)”, the fold induction of ICAM expression by NHDF cells (flow cytometry, 20 nM) in test [3] was less than 1.5 fold. In test [5], this substance came in with a Kd of 114 nM, a koff of 0.002 s⁻¹ and a kon of 18000 M⁻¹ s⁻¹. This substance also returned a fold lower affinity than LIGHT t66 in test [6] of 30 fold.
